T1: human FcγRIIa (131H), His- and GST-tagged (human, UniProt P12318 34-217)
T1 construct: also called H131 FcγRIIa; HIIa; not shown: 6xHis and GST tags of the pTT5 vector
T1 sequence (looked up): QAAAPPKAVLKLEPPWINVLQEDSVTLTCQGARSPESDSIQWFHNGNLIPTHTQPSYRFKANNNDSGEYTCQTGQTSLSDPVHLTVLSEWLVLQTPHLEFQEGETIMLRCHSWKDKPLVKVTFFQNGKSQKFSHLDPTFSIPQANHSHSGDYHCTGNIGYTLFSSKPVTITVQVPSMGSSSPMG

T2: human FcγRIIa (131R), His- and GST-tagged (human, UniProt P12318 34-217)
T2 construct: Expressed in HEK293T cells, purified by nickel chromatography; also called R131 FcγRIIa; not shown: 6xHis and GST tags of the pTT5 vector
T2 sequence (looked up): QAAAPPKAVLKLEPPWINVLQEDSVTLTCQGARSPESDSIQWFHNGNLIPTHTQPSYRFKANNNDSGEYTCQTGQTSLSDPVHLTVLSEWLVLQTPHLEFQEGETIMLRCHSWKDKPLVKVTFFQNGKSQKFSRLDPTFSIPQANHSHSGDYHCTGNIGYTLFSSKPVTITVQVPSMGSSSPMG

T3: human FcγRIIb receptor protein (R&D Systems) (human, UniProt P31994 46-217)
T3 construct: Bought protein injected over captured antibody in Biacore; also called CD32b
T3 sequence (looked up): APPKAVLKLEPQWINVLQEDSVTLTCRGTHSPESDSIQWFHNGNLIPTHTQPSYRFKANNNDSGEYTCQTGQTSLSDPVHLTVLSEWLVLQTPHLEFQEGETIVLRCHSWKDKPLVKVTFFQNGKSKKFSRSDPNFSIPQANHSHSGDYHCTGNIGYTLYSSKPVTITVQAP

T4: cynoFcγRIIb (Macaca fascicularis, UniProt A0A140HDP4)
T4 construct: extracellular region, C-terminal His- and GST-tag; also called cynomolgus monkey FcγRIIb
T4 sequence (receptor extracellular region): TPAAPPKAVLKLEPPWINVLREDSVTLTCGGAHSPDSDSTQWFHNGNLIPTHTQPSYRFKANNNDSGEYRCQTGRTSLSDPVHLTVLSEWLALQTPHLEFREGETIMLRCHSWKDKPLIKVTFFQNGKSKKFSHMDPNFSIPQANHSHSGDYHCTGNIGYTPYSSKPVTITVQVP

T5: mFcγRIIb (Mus musculus, UniProt P08101)
T5 construct: extracellular region, C-terminal His- and GST-tag; also called mouse FcγRII
T5 sequence (receptor extracellular region, looked up): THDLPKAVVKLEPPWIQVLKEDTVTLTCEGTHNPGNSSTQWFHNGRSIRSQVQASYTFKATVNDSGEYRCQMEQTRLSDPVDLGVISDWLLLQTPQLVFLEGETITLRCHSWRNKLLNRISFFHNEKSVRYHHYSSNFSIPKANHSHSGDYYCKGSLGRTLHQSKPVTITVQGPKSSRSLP

T6: mFcγRIV
T6 construct: also called mouse FcγRIV; not shown: C-terminal His and GST tags (named only on our card)
T6 chain: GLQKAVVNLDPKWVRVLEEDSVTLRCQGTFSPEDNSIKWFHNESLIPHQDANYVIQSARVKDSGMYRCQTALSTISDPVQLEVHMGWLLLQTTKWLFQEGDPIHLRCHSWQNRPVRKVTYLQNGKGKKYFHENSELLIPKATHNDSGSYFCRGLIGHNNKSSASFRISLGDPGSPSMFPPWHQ

T7: human FcγRIIb on cells (transfected HEK293T cells; primary human B cells) (human, UniProt P31994 43-310)
T7 construct: whole, on cells; also called CD32b
T7 sequence (looked up): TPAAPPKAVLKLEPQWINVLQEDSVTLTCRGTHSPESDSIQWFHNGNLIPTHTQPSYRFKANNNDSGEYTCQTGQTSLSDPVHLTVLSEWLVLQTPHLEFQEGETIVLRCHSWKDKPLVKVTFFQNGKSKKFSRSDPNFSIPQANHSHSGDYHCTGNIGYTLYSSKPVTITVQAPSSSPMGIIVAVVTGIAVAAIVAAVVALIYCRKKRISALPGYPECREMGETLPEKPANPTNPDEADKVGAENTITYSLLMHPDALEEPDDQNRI


Key:
[1] = target: T8, human FcγRIIIa (158F), His- and GST-tagged (human, UniProt P08637 17-208); experiment: SPR
T8 construct: also called F158 FcγRIIIa; not shown: 6xHis and GST tags of the pTT5 vector

[2] = target: T1, human FcγRIIa (131H), His- and …; experiment: SPR
[3] = target: T9, human FcγRIIIa (158V), His- and GST-tagged (human, UniProt P08637 17-208); experiment: SPR
T9 construct: also called V158 FcγRIIIa; VIIIa; not shown: 6xHis and GST tags of the pTT5 vector

[4] = target: T2, human FcγRIIa (131R), His- and …; experiment: SPR
[5] = target: T10, human FcγRI receptor protein (R&D Systems) (human, UniProt P12314 16-288); experiment: SPR
T10 construct: also called soluble FcγRI; solFcγRI

[6] = target: T3, human FcγRIIb receptor protein (R&D …); experiment: SPR
[7] = target: T3, human FcγRIIb receptor protein (R&D …); experiment: Biacore SPR, antibody captured on protein A/G chip, FcγR injected, 1:1 Langmuir fit
Experimental: (§1) Variants were screened for receptor affinity using Biacore™ technology, also referred to as Biacore herein, a surface plasmon resonance (SPR) based technology for studying biomolecular interactions in real time. SPR measurements were performed using a Biacore 3000 instrument (Biacore, Piscataway, N.J.). A protein A/G (Pierce Biotechnology) CM5 biosensor chip (Biacore) was generated using a standard primary amine coupling protocol. All measurements were performed using HBS-EP buffer (10 mM HEPES pH 7.4, 0.15 M NaCl, 3 mM EDTA, 0.005% vol/vol surfactant P20, Biacore). Antibodies at 20 nM or 50 nM in HBS-EP buffer were immobilized on the protein A/G surface and FcγRs were injected. After each cycle, the surface was regenerated by injecting glycine buffer (10 mM, pH 1.5). Data were processed by zeroing time and response before the injection of FcγR and by subtracting appropriate nonspecific signals (response of reference channel and injection of running buffer). Kinetic analyses were performed by global fitting of binding data with a 1:1 Langmuir binding model using BIAevaluation software (Biacore).

cynoFcγRIIIa = target: T11, cynoFcγRIIIa (Macaca fascicularis, UniProt Q8SPW2); experiment: SPR, Kd
T11 construct: extracellular region, C-terminal His- and GST-tag; also called cynomolgus monkey FcγRIIIa
Experimental: as §1
Variant antibodies were tested for their affinity to mouse or cynologous monkey FcγRs using Biacore SPR as described above. Specifically, antibodies were first immobilized on a protein A/G chip to high density, and then followed by injections of the extracellular domain of the mouse or cynologous monkey FcγR of interest. Both association and dissociation phases were tracked in real time using the Biacore technology.

cynoFcγRIIb = target: T4, cynoFcγRIIb; experiment: SPR
mFcγRIIb = target: T5, mFcγRIIb; experiment: SPR
mFcγRIV = target: T6, mFcγRIV; experiment: SPR
[8] = target: T7, human FcγRIIb on cells (transfected …); experiment: flow cytometry on HEK293T cells transfected with human FcγRIIb, PE anti-human Fab detection
Experimental: (§2) In order to validate the Biacore data and evaluate receptor binding of the variants on the cell surface, binding of select antibodies to cells expressing FcγRIIb was measured. […] HEK293T cells in DMEM with 10% FBS were transfected with human FcγRIIb cDNA in pCMV6 expression vector (Origene Technologies, Rockville, Md.), cultured for 3 days, harvested, washed twice in PBS, resuspended in PBS with 0.1% BSA (PBS/BSA), and aliquoted at 2×10^5 cells per well into 96-well microtiter plates. Fc variant antibodies were serially diluted in PBS/BSA then added to the cells and incubated with mixing for 1 h at room temperature. After extensive washing with PBS/BSA, phycoerythrin (PE)-labeled anti-human-Fab-specific goat F(ab′)2 fragment was added for detection. Cells were incubated for 30 min at room temperature, washed, and resuspended in PBS/BSA. Binding was evaluated using a FACSCanto II flow cytometer (BD Biosciences, San Jose, Calif.), and the mean fluorescence intensity (MFI) was plotted as a function of antibody concentration using Graph Pad Prism software (GraphPad Software, San Diego, Calif.) from which half-maximal binding (EC50) values were determined by sigmoidal dose response modeling.

[9] = target: T7, human FcγRIIb on cells (transfected …); experiment: flow cytometry on FcγRIIb-transfected 293T cells [middle right panel]
Experimental: as §2

[10] = target: T7, human FcγRIIb on cells (transfected …); experiment: flow cytometry on FcγRIIb-transfected 293T cells [top left panel]
Experimental: as §2

[11] = target: T7, human FcγRIIb on cells (transfected …); experiment: flow cytometry on FcγRIIb-transfected 293T cells [middle left panel]
Experimental: as §2

[12] = target: T7, human FcγRIIb on cells (transfected …); experiment: flow cytometry on FcγRIIb-transfected 293T cells [top right panel]
Experimental: as §2

[13] = target: T7, human FcγRIIb on cells (transfected …); experiment: flow cytometry on FcγRIIb-transfected 293T cells [bottom left panel]
Experimental: as §2
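Throughout, for Fold vs WT IgG1 (off-rate): fold improvement over WT IgG1 so higher means slower dissociation than WT.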

T9 sequence (P08637 17-208 F176V): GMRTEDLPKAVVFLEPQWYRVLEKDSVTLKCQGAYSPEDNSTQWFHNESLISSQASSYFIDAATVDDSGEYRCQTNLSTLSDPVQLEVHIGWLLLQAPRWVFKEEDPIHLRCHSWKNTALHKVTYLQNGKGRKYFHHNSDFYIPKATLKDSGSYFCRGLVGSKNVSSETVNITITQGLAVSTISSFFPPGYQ
T10 sequence (P12314 16-288 limits assumed): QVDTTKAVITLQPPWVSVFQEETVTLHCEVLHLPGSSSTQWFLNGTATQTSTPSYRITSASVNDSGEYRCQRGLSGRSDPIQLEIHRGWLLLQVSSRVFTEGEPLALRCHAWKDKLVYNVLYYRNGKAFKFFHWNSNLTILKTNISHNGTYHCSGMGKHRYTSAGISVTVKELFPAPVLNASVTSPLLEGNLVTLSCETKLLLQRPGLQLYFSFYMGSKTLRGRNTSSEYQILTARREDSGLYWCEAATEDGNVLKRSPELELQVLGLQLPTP
T8 sequence (P08637 17-208): as the sequence (P08637 17-208 F176V) above, with V160F counted along it
T11 sequence (Q8SPW2 17-208): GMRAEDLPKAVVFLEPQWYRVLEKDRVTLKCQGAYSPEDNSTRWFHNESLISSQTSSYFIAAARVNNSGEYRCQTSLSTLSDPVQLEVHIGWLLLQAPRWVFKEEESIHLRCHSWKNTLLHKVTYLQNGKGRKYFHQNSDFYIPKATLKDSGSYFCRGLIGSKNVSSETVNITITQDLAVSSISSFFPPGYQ

| Binder | Fold vs WT IgG1 [2] [fold] | Kd [2] [nM] | Fold vs WT IgG1 [3] [fold] | Kd [3] [nM] | Fold vs WT IgG1 [4] [fold] | Kd [4] [nM] | Fold vs WT IgG1 [5] [fold] | Kd [5] [nM] | Fold vs WT IgG1 [6] [fold] | Kd [6] [nM] | further results |
| --- | --- | --- | --- | --- | --- | --- | --- | --- | --- | --- | --- |
| anti-CD19 antibody HuAM4G7, WT (native) IgG1 (antibody, also called WT IgG1; anti-CD19-IgG1; copies: 2 + 2) heavy: not shown light: DIVMTQSPATLSLSPGERATLSCRSSKSLQNVNGNTYLYWFQQKPGQSPQLLIYRMSNLNSGVPDRFSGSGSGTEFTLTISSLEPEDFAVYYCMQHLEYPITFGAGTKLEIKRTVAAPSVFIFPPSDEQLKSGTASVVCLLNNFYPREAKVQWKVDNALQSGNSQESVTEQDSKDSTYSLSSTLTLSKADYEKHKVYACEVTHQGLSSPVTKSFNRGEC | 1 | 646 | 1 | 191 | 1 | 859 | 1 | 0.329 | 1 |  | Fold vs WT IgG1 [1]: 1 fold; Kd [7]: 1470 nM |
| anti-CD19 antibody HuAM4G7 IgG1 S267E/L328F (antibody, Positions in EU numbering; also called anti-CD19-S267E/L328F; α-CD19-S267E/L328F; copies: 2 + 2) heavy: not shown light: DIVMTQSPATLSLSPGERATLSCRSSKSLQNVNGNTYLYWFQQKPGQSPQLLIYRMSNLNSGVPDRFSGSGSGTEFTLTISSLEPEDFAVYYCMQHLEYPITFGAGTKLEIKRTVAAPSVFIFPPSDEQLKSGTASVVCLLNNFYPREAKVQWKVDNALQSGNSQESVTEQDSKDSTYSLSSTLTLSKADYEKHKVYACEVTHQGLSSPVTKSFNRGEC | 0.7 | 923 | 0.038 | 5040 | 275 | 3.12 | 1.5 | 0.22 | 242 | 6.06 | binding result (cynoFcγRIIIa): no binding; Fold vs WT IgG1 (Kd) (cynoFcγRIIb): 0.881 fold; Fold vs WT IgG1 (off-rate) (cynoFcγRIIb): 1.26 fold; Fold vs WT IgG1 (Kd) (mFcγRIIb): 1.06 fold; Fold vs WT IgG1 (off-rate) (mFcγRIIb): 4.89 fold; Fold vs WT IgG1 (Kd) (mFcγRIV): 0.02 fold; Fold vs WT IgG1 (off-rate) (mFcγRIV): 0.198 fold; fold EC50 relative to WT IgG1 [8]: ~320 fold |
| S239D/I332E (antibody, human IgG1, kappa, HuAM4G7 anti-CD19 IgG1 (m1) with these Fc substitutions, EU index; copies: 2 + 2) heavy: not shown light: DIVMTQSPATLSLSPGERATLSCRSSKSLQNVNGNTYLYWFQQKPGQSPQLLIYRMSNLNSGVPDRFSGSGSGTEFTLTISSLEPEDFAVYYCMQHLEYPITFGAGTKLEIKRTVAAPSVFIFPPSDEQLKSGTASVVCLLNNFYPREAKVQWKVDNALQSGNSQESVTEQDSKDSTYSLSSTLTLSKADYEKHKVYACEVTHQGLSSPVTKSFNRGEC |  | 163 |  |  |  | 68.6 |  | 0.0374 |  | 101 | EC50 (read off the curve) [9]: ~0.03 µg/mL; Kd [1]: 28.2 nM; EC50 (read off the curve) [10]: ~0.02 µg/mL; EC50 (read off the curve) [11]: ~0.03 µg/mL; EC50 (read off the curve) [12]: ~0.02 µg/mL |
| anti-CD19 antibody HuAM4G7 IgG1 L235Y/S267E (antibody, Positions in EU numbering; copies: 2 + 2) heavy: not shown light: DIVMTQSPATLSLSPGERATLSCRSSKSLQNVNGNTYLYWFQQKPGQSPQLLIYRMSNLNSGVPDRFSGSGSGTEFTLTISSLEPEDFAVYYCMQHLEYPITFGAGTKLEIKRTVAAPSVFIFPPSDEQLKSGTASVVCLLNNFYPREAKVQWKVDNALQSGNSQESVTEQDSKDSTYSLSSTLTLSKADYEKHKVYACEVTHQGLSSPVTKSFNRGEC | 0.941 | 687 |  |  | 37.5 | 22.9 | 0.00347 | 95 | 37.2 | 39.4 | binding result [3]: no binding; EC50 (read off the curve) [13]: ~0.006 µg/mL |

— patent publication US20130315910A1 (Xencor, published 2013)
